{"source": "paper PMC6757032", "target": "pre-formed trans-SNARE complexes between V- and T-liposomes (syntaxin-1A S186C-TMR, cysteine-free SNAP-25a, synaptobrevin-2 L26C-Alexa-488) (rat), P32851", "sequence (P32851 whole entry C145A/S186C/C271A/C272A, chain 1 of 3)": "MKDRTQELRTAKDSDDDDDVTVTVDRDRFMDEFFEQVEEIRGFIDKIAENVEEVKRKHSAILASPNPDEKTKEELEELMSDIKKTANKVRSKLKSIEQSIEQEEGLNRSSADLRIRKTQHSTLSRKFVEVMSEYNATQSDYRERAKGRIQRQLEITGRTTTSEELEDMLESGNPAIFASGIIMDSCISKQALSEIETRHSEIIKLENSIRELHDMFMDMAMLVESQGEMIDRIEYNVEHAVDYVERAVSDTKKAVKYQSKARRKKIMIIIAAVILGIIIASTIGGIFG", "sequence (P60881 other isoform, or with tags, fused parts or gaps, stated change not applied, chain 2 of 3, further chain)": "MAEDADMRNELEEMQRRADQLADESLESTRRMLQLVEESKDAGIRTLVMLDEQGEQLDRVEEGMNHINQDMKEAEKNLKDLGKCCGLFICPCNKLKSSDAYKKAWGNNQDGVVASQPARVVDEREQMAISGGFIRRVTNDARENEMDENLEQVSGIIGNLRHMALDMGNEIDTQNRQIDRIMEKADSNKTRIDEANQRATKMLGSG", "sequence (P63045 other isoform, or with tags, fused parts or gaps, stated change not applied, chain 3 of 3, further chain)": "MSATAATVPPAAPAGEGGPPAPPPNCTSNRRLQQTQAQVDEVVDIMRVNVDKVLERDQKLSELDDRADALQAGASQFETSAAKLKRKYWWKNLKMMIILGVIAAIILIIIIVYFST", "data": [{"binder": "full-length Bos Taurus αSNAP, P81125 1-295 (natural protein, here or on the partner: tetramethylrhodamine on the cysteine at residue 186 | Alexa-488 on the cysteine at residue 26) MDNSGKEAEAMALLAEAERKVKNSQSFFSGLFGGSSKIEEACEIYARAANMFKMAKNWSAAGSAFCQAAHVHLQLQSKHDAATCFVDAGNAFKKADPQEAINCLMRAIEIYTDMGRFTIAAKHHISIAEIYETELVDIEKAIAHYEQSADYYKGEESNSSANKCLLKVAGYAAQLEQYQKAIDIYEQVGTNAMDSPLLKYSAKDYFFKAALCHFCIDMLNAKLAVQKYEELFPAFSDSRECKRIKKLLEAHEEQNVDSYTEAVKEYDSISRLDQWLTTMLLRIKKTIQGDEEDLR", "values": [{"measurement": "inhibition of lipid mixing (DiD de-quenching at 37 °C) mediated by trans-SNARE complexes pre-formed between V- and T-liposomes; titration with WT αSNAP", "result": 170, "unit": "nM"}]}]}
